Assay: yeast display, Sf9 membrane polyspecificity reagent, FACS + sequencing; frameworks hold sequencing errors
In short: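 Synthetic nanobody libraries on Saccharomyces cerevisiae BJ5465 were galactose-induced for 36–48 hours, stained 1 hour at 4 °C with 10% biotinylated, detergent-solubilized Sf9 membrane reagent and enriched on streptavidin microbeads. FACS then separated cells into low and high (top ~1%) gates by anti-HA (expression) and streptavidin (reagent binding) fluorescence. Genes were colony-PCR amplified, MiSeq 2 × 250 sequenced and CDR-length filtered. A clone's polyreactivity label is that of its gate of origin.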

## QVHLVESGGGLVQAGGSLLISCSASGSTFGTNAMGWYRQAPGKERDLVASITWSGGNTNYADSVKGRFTISRDNAKNTVYLQKKSMKPADTAVYYCAAEVFISYGVGGYYSDMDYWGQVTQVTVSS
  polyreactivity (PSR sort gate): low polyreactivity

## QVQLVESGGGLVQAGGSLRLSCAASGRIFNFYAMGWYRQAPGKERELVAAITRGGSTYYADSVKGRFTISRDNAKNTVYLQMNSLKPEDTAVYYCNALNRYYDGDYYYWGQGTQVTVSS
  polyreactivity (PSR sort gate): high polyreactivity

## QVQLVESGGGLVQAGGSLRLSSAASGITFGLYAMGWYRQPPGKERELVADITWSGGSTYYADSVKGRFTISRDNAKNTVYFQMNRLKPEDTAVYYCNADLYADESLFWFALYDYWGQGTQVTVSS
  polyreactivity (PSR sort gate): low polyreactivity

## QVQLEESGGGLFQAGGSLRLSCAASVSSYRSYARGWYRTATGKERELVAAISVSGGSTYYADSVKGRFTISRDNAKNTVFLQMNSLKPEDTAVYYCAASYVPSYAPGRYYYWGQGTQVTVSS
  polyreactivity (PSR sort gate): high polyreactivity

## QVQLVESGGGLVQAGGSLRFSCAASGRTFVPYAMGWYRQAPGKERELVARIDSSGGSTYYADSVKGRFTISRDNAKNTVYLQMNSLKPEDTAVYYCAAVFYYWSLRSYYWGQGTQVTVSS
  polyreactivity (PSR sort gate): high polyreactivity

## QVQLVESGGGLVQAVGSLLLSCAASGITFRYYAMGWYRQAPGKERELVARITTDGSTHYADSVMGRFTISRDNAKNTVYLQMNSLKPEDTAVYYCNVDGYYLFVRGYEYWGLGTQVTVSS
  polyreactivity (PSR sort gate): low polyreactivity

## QVQLVESGGGLVQAGGSLRLSCAASGIIFIYNAMGWYRQAPGKERELVGAIRRSGSPSYADSVKGRFTISRDNAKNTVYLQMNSLKPEDTAVYYCAADTSTWFGAYYLRDPYDYWGQGTQVTVSS
  polyreactivity (PSR sort gate): low polyreactivity

## QVQVVESGGGILQAGGSLRLSCAASGSIFYTNAMGWYRQAPGKERELVAAINLRDTGTYYADSVKGRFTISRDNAKNTVYLQMNSLNPDDTAVYYCAVDVYSRRTRIRYDSWGHGTQVTVSS
  polyreactivity (PSR sort gate): low polyreactivity

## QVQLVDSGGGLVQAGGSLRLSCADSGRIFVGYAMGWYTQAPGKDRELVAAINRTGSSTYYADSVKGRFTISRDNAKTTVYLQMNSLKPEDTAVYYCNARSGNRYGPRYDYWGQGTQVTVSS
  polyreactivity (PSR sort gate): high polyreactivity

## QVQLVESGGGLVQAGGSLRLSCAASGRTFQRYTMGWYRQAPGKERELVASISRSGGSTYYADSVKGRFTISRDNAKNTVYLQMNSLKPEDTAVYYCATRSLFWNRNHYRVSSPVLFDYWGQGTQVTVSS
  polyreactivity (PSR sort gate): high polyreactivity

## QVQLVESGGGLVQAGGSLRISCAASGSIFARYAMGWYRQAPGKERELVAAISKRGGSTYYADSVKGRFTISRDNAKNTVYLQMNSLKPEDTAVYYCAAVSYPPYTTKMDYWGQGTLVTVSS
  polyreactivity (PSR sort gate): high polyreactivity

## QVQLVESGGGLVQAGGSLRLSCAASGLTFTTYAMGWYRQAPGKERELVAAISRRGSRTYYADSVKGRFTISRDNAKNTVYLQMNILKPEDTEVYYCNAMTGSFKTYSFDYWGHGTQVTVSS
  polyreactivity (PSR sort gate): high polyreactivity

## LVQLVQSGGGLVQAGGTLRISSAASGSTLDWYAMGWYRQAPGKERELVAAITSGGSTYYADSVKGRFTISRDNAKNTVYLQMNSLKPEDTAVYYCAAEYYTWYYDIYDYWGQGTQVTVSS
  polyreactivity (PSR sort gate): high polyreactivity

## QVQLVESGGGLVQAGGSLRLSCAASGRTFIVYAMGWYRQAPGTERELVAGITRGSTTYADSVKGRFTISRDNATNTVYLQMNSLKPEDTAVYYCAARSSRRGPISEGDYWGQGTHVTVSS
  polyreactivity (PSR sort gate): high polyreactivity

## QVQLVESGGGLVQAGGSLRLSCAASGSTFVQYAMGWYRQAPGKERELVAAITRSGGSTYYADSVKGRFTISRDNAKNTVYLQMNSLKPEDTAVYYCAADFSSSYRAFNYWGQGTQLTVSS
  polyreactivity (PSR sort gate): high polyreactivity

## QVQLVESGGGLVQAGGSLRLSCAASGSIFSYYAMGWYRQAPGKETEVVAAISQNGGSTYYADSVKGRVTISRDNAKNTVYLQMNSLKPEDTAVYYCNAYSVYVRGEYWGQGTQVTVSS
  polyreactivity (PSR sort gate): high polyreactivity

## QVQLVESGGGLVQAGRSLRLSCAASGFTFIRYDMGWYRQALGKETELVATITRRGGSTYYADSVKGRFTISRDNAKNTVYLQMNSLKPEDTAVYYCNRDYVTYGKYYYWGQGTQVTVSS
  polyreactivity (PSR sort gate): high polyreactivity

## QVQLVESGGVLVQAGGSLRLSCAASGFTFLAYAMGWYRQAPGKERELVAAINSSDGTTHYADSVKGRFTISRDNAKITVYLQMNSLKPEDTAVYYCAVSQVRTGEGYHYWGQGTQVTVSS
  polyreactivity (PSR sort gate): low polyreactivity

## QVQLVESGGGLVQAGGSLRLSCAASGFTFGPYAMGWYRQAPGKERELVAAIRGSGSSTYYADSVKGRFTISRDNAKNTVYLQMNSLKPEDTAVYYCAAKRRYGTDGYWGQGTQVTVSS
  polyreactivity (PSR sort gate): high polyreactivity

## QVQLVESGGGLVQAGGTLRLSCAASGFIFGYNAMGWYRQAPGKERELVARINSGGNTNYADSVKGLFSISRDNAKNTVYLLMNSLKPEDTAVYYCARDASNRYDYWRQGTQVTVSS
  polyreactivity (PSR sort gate): low polyreactivity

## QVQIVESGGVLVQAGGSLRLSCAASGFNYTNYAMGWYIQSPGKERELVAAITYSGGSKYYADSVKGRFTISRDIAKNTVYLQMNSLKPEDTAVFFCNKYPSFYGAGYYWGQGTQVTVSS
  polyreactivity (PSR sort gate): high polyreactivity

## QVQLVESGGGLVQAGGSLRLSCAASGFIIGDYAMGWYRQAPGTERELVAAIFSVGSTYYADSVKGRFTISRDNAKNTVYLQMNSLKPEDTAVYYCAARFARYDWSMYYWGQGTQVTVSS
  polyreactivity (PSR sort gate): low polyreactivity

## QVQLVESGGGLVQAGGSLRLSCAASGRIFYGNAMGWYRQAPGKESELVASITSSGSTKYADSVKGRFTISRDNAKNTVYLQMYSLKPVDTAVYYCAASSTKRYDTYAGYDYWGQGTQVTVSS
  polyreactivity (PSR sort gate): low polyreactivity

## QVQLVESGVGLVQAGGSLRLSCAASGSTFYRNTMGWYRQAPGKERELVAAINTSGASTYYADSVKGRFTISRDNAKNTVYLQMNSLKPEDTAVYYCAALYRGYTGGYKFYYWGQGTQVTVSS
  polyreactivity (PSR sort gate): high polyreactivity

## QVQLVESGGGLVQAGGSLRLSCAASGRIFTPYAMGWYRQAPGKERELVATISRGTSTSYADSVKGRFTISRDNAKNTVYLQMNSLKPEDTAVYYCAALGPRTTFRYTSYYYWGQGTQVTVSS
  polyreactivity (PSR sort gate): high polyreactivity

## QVQLVESGGGLVQAGGSLRLSCAASGFTFWYYAMGWYRQAPGKERELVAAITYNGDRTYYADSVKGRFTISRDNAKNTVYLQMNSLKREDTAVYYCAVYLGIRSGTANDYWGQGTQVTVSS
  polyreactivity (PSR sort gate): high polyreactivity

## QVQLVESGGGLVQAGGSLRLSCAASGSIFYPYTMGWYRQAPGKETEFVARITWSGGSTYYADSVKGRFTISRDNAKNTVYLQMNSLKPEDSAVYYCARVAWSESDWQKMDYWGQGTQVTVSS
  polyreactivity (PSR sort gate): high polyreactivity

## QVQLVESGGGLVQAGGSLRLSCAASGRIYGPNAMGWYRQAPGKERELVAAISTSGGSTYYADSVKGRFTISRDNAKNTVYLQMNSLKPEDTAVYYCNVVHRGSWYYFWGQGTQVTVSS
  polyreactivity (PSR sort gate): high polyreactivity

## HVQLQESGGGLVQPGGSLRLSCAASGNISFSRNMGWYRQAPGKERELVAAIDRGAITYYGDSVKGRFTISRDNAKNTVYLQIYSLKPEDTAVYYCAAEYHDGWDHRYWGQGTQVTVSS
  polyreactivity (PSR sort gate): high polyreactivity

## QVQLVESGGGLVQAGGSLRLSCAASGYTFTGYAMGWYRQAPGKERELVAAISWNGGSTFYADSVKGRFTISRDNAKNTVYLQMNSLKPEDTAVYYCATPRKLAYSPKLDYWGQGTQVTVSS
  polyreactivity (PSR sort gate): low polyreactivity

## QVQLVESGGGLVQAGGSLRLSCAASGSIFWYNAMGWYRQAPGKERELVAAIRWRGGSTYYADSVKGRFTISRDNAKNTVYLQMNSLKPEDTAVYYCARDRYYRTLGYGYWGQGTQVNVSS
  polyreactivity (PSR sort gate): high polyreactivity

## QVQLVESGGGLVQTGGSLRLSCAASGRILYTNAMGWYRQAPGKERELVAAISSGGRTTYADSVKGRFTISRDNAKNTVYLQMNSLKPEDTAVYYCAAGIRIYGTKRSRGYGYWGQGTQVTVSS
  polyreactivity (PSR sort gate): high polyreactivity

## QVQLVESGGGLVQAGGSRRISWAASGSTFPWNVMGWYRQAPGKERELVAAISSSDGRTYYADSVKGRFTISRDNAKNTVYLQMNSLNPDDTAVDYCAASVAYYWYRTWLFDYDYWGQGTEVTVSS
  polyreactivity (PSR sort gate): high polyreactivity

## QVRLVESGGGLVQAGGSLRLSCAASGRIFASYAMGWNRQAPGKETELVAAISKSGGRTYYADSVKGGFTISRDNAKNTVYLQMNSLKPEDTAVYYCAAYFWTRSGTPNYDYWGQGTQVTVSS
  polyreactivity (PSR sort gate): high polyreactivity

## QVQQQESGGGLVQAGGSLRLSCAASGTILYSLGMGWYRQAPGKRREFVASITWGTTTNYAESVKGRFTISRDNAKNTVYPQMNSLKPEDTAVYYCNKSSTGWTSTYDYWGQGTQVTVSS
  polyreactivity (PSR sort gate): low polyreactivity

## QVQLVESGGGLVQAGGSLRLSCAASGFIFRQYAMGWYIQAPGKERELVAAITWSGTRTYYADSVKGRFTISRDNAKNTVYLQMNSLKPEDTAVYYCNAGYPKYGYDYWGQGTQVTVSS
  polyreactivity (PSR sort gate): high polyreactivity

## QVQLVESGGGLVQAGGSLRLSCAASGRIFNLYAMGWYRQAPGKERELVAAISYSGGRTYYADSVKGRFTISRDNAKNTVYLQMNSLKPEDTAVYYCNTVRGSVRQAGVGYDYWGQGTQVTVSS
  polyreactivity (PSR sort gate): high polyreactivity

## QVQLVESGGGLVQAGGSLRLSCAASGRTFGNYAMGWYRQARGKERELVASISRRGGSTYYADSVKGRFTISRENAKNTVYLQMTSLKPDDTAVFYCATLRGRQRFGYDYWGQGTQVTVSS
  polyreactivity (PSR sort gate): high polyreactivity

## QVQLVESGGGLVQAGGSLRLICAASGRTFSSYAMGWYRQAPGKERELVAALSRRGGSTYYADSVKGRFTISRDNAKNTVYLQMNSLNPEDTAVYYCAADVYKQYGYYYWGQGTQVTVSS
  polyreactivity (PSR sort gate): high polyreactivity

## QVQLVESGGGLVEAGGSLRLICAASGSTFGWYAMGWSRQAPGKEREFVAAISWSGTSTYYADSVKGRFTISRDNAKNTVYLQMNSLKPEDTAVYYCNARSKRANRSLGLGYWGQGTQVTVSS
  polyreactivity (PSR sort gate): low polyreactivity

## QVQLVESGGGLVQAGGSLRLSCAASGRIFVSYAMGWYRQAPGKERELVAAINWNGDRTYYADSVKGRFTISRDNATNTVYLQMNSLKPEDTAVYYCNTDSILLPYDYWGQGTQVTVSS
  polyreactivity (PSR sort gate): low polyreactivity

## QVQLVESGGGLVQAGGSLRLSCAASGRIFQKNAMGWNIQAPGKERELVAVISWSDGSTNYADSVKGRFTISRDNAKNTVYLQMNSLKPEDTAVYYCNAAPLEGTLYDSWGQGTQVTVSS
  polyreactivity (PSR sort gate): low polyreactivity

## QVQLVESGGGLVQAGGSLRLSCAASGSTFNHYAMGWYRQAPGKERELVAAITKSGGSTYADSVKGRFTISRDNAKNTVYIQMNSLKPEDTAVYYCAAGRRKYGTKGRGDYWGQGTQVTVSS
  polyreactivity (PSR sort gate): low polyreactivity

— the nanobody polyreactivity screen of Harvey et al. (2022)
